Source: US20220204580A1 (AstraZeneca / MedImmune, published 2022)
Numbered stars: 1 amine (or outer) side, 2 acyl side, 3 side chain; on linkers, the order of the positions; unused ones are H or OH. Bridge positions count the residues as written; N and C are the ends. Square brackets hold non-standard residues; d marks the D form. Side chains are listed from the residue outwards. Ends that are not written are not given here. * marks the point of attachment. C18 diacid = O=C(O)CCCCCCCCCCCCCCCCC(=O)*; γGlu = O=C(O)[C@H](CCC(=O)[*:2])N[*:1]; αMeF = C[C@](N)(Cc1ccccc1)C(=O)O; Dab = NCC[C@H](N)C(=O)O; Aib = CC(C)(N)C(=O)O

T1: human calcitonin receptor (human, UniProt P30988 25-474)
T1 sequence (looked up): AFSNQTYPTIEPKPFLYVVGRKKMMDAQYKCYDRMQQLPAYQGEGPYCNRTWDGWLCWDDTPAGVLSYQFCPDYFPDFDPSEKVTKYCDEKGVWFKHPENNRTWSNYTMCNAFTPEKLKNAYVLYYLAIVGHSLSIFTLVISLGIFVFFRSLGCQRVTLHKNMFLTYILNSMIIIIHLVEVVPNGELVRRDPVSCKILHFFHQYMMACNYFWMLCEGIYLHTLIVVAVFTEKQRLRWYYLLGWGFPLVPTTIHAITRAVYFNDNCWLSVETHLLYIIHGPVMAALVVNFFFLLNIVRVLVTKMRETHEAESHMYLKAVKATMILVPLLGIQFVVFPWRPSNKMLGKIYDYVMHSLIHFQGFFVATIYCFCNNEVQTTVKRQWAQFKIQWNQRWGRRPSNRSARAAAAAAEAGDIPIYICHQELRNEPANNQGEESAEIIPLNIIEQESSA

T2: human amylin receptor (calcitonin receptor co-expressed with receptor activity modifying protein, RAMP3) (human, UniProt P30988 25-474; O60896 24-148)
T2 sequence (looked up) 1: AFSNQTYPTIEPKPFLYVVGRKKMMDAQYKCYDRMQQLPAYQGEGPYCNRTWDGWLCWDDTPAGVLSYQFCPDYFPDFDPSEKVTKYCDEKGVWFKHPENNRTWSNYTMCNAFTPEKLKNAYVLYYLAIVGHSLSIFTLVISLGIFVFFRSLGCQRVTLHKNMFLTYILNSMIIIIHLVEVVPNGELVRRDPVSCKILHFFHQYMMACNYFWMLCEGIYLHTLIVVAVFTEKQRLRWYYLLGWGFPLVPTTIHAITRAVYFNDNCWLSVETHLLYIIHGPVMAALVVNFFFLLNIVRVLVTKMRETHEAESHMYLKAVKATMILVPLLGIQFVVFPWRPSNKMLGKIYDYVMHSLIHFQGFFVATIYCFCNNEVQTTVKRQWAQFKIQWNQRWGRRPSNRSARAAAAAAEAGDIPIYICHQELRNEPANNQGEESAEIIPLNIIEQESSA
T2 sequence (looked up) 2: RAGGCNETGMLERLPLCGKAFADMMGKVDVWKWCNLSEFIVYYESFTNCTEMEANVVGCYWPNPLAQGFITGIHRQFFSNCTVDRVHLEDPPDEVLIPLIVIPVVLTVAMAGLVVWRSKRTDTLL


Columns and labels:
[1] = target: T1, human calcitonin receptor; test: cell-based or functional assay
[2] = target: T2, human amylin receptor (calcitonin …); test: cell-based or functional assay

Binder	EC50 (cAMP production) [1] [nM]	EC50 (cAMP production) [2] [pM]	Ratio (EC50 hCTR / EC50 hAMYR3) [2]
K([γGlu-C18 diacid])KCNTATCATQRLANFLVHSS[Dab]NFGPILPPTNVGSNTY-NH2 (disulfide 3-8; N-terminus assumed; SMILES CC[C@H](C)[C@H](NC(=O)[C@@H]1CCCN1C(=O)CNC(=O)[C@H](Cc1ccccc1)NC(=O)[C@H](CC(N)=O)NC(=O)[C@H](CCN)NC(=O)[C@H](CO)NC(=O)[C@H](CO)NC(=O)[C@H](Cc1c[nH]cn1)NC(=O)[C@@H](NC(=O)[C@H](CC(C)C)NC(=O)[C@H](Cc1ccccc1)NC(=O)[C@H](CC(N)=O)NC(=O)[C@H](C)NC(=O)[C@H](CC(C)C)NC(=O)[C@H](CCCNC(=N)N)NC(=O)[C@H](CCC(N)=O)NC(=O)[C@@H](NC(=O)[C@H](C)NC(=O)[C@@H]1CSSC[C@H](NC(=O)[C@H](CCCCN)NC(=O)[C@@H](N)CCCCNC(=O)CC[C@H](NC(=O)CCCCCCCCCCCCCCCCC(=O)O)C(=O)O)C(=O)N[C@@H](CC(N)=O)C(=O)N[C@@H]([C@@H](C)O)C(=O)N[C@@H](C)C(=O)N[C@@H]([C@@H](C)O)C(=O)N1)[C@@H](C)O)C(C)C)C(=O)N[C@@H](CC(C)C)C(=O)N1CCC[C@H]1C(=O)N1CCC[C@H]1C(=O)N[C@H](C(=O)N[C@@H](CC(N)=O)C(=O)N[C@H](C(=O)NCC(=O)N[C@@H](CO)C(=O)N[C@@H](CC(N)=O)C(=O)N[C@H](C(=O)N[C@@H](Cc1ccc(O)cc1)C(N)=O)[C@@H](C)O)C(C)C)[C@@H](C)O) [Peptide 29 (SEQ ID NO: 29)]	8.21	243	34
K([γGlu-C18 diacid])KCNTATCATQRLANFL[Aib]HSS[Dab]NFGPILPPTEVGSNTY-NH2 (disulfide 3-8; N-terminus assumed; SMILES CC[C@H](C)[C@H](NC(=O)[C@@H]1CCCN1C(=O)CNC(=O)[C@H](Cc1ccccc1)NC(=O)[C@H](CC(N)=O)NC(=O)[C@H](CCN)NC(=O)[C@H](CO)NC(=O)[C@H](CO)NC(=O)[C@H](Cc1c[nH]cn1)NC(=O)C(C)(C)NC(=O)[C@H](CC(C)C)NC(=O)[C@H](Cc1ccccc1)NC(=O)[C@H](CC(N)=O)NC(=O)[C@H](C)NC(=O)[C@H](CC(C)C)NC(=O)[C@H](CCCNC(=N)N)NC(=O)[C@H](CCC(N)=O)NC(=O)[C@@H](NC(=O)[C@H](C)NC(=O)[C@@H]1CSSC[C@H](NC(=O)[C@H](CCCCN)NC(=O)[C@@H](N)CCCCNC(=O)CC[C@H](NC(=O)CCCCCCCCCCCCCCCCC(=O)O)C(=O)O)C(=O)N[C@@H](CC(N)=O)C(=O)N[C@@H]([C@@H](C)O)C(=O)N[C@@H](C)C(=O)N[C@@H]([C@@H](C)O)C(=O)N1)[C@@H](C)O)C(=O)N[C@@H](CC(C)C)C(=O)N1CCC[C@H]1C(=O)N1CCC[C@H]1C(=O)N[C@H](C(=O)N[C@@H](CCC(=O)O)C(=O)N[C@H](C(=O)NCC(=O)N[C@@H](CO)C(=O)N[C@@H](CC(N)=O)C(=O)N[C@H](C(=O)N[C@@H](Cc1ccc(O)cc1)C(N)=O)[C@@H](C)O)C(C)C)[C@@H](C)O) [Peptide 30 (SEQ ID NO: 30)]	10.5	873	12
K([γGlu-C18 diacid])KCNTATCATQRLA[Dab]FLVHSSNNFGPILPPTNVGSNTY-NH2 (disulfide 3-8; N-terminus assumed; SMILES CC[C@H](C)[C@H](NC(=O)[C@@H]1CCCN1C(=O)CNC(=O)[C@H](Cc1ccccc1)NC(=O)[C@H](CC(N)=O)NC(=O)[C@H](CC(N)=O)NC(=O)[C@H](CO)NC(=O)[C@H](CO)NC(=O)[C@H](Cc1c[nH]cn1)NC(=O)[C@@H](NC(=O)[C@H](CC(C)C)NC(=O)[C@H](Cc1ccccc1)NC(=O)[C@H](CCN)NC(=O)[C@H](C)NC(=O)[C@H](CC(C)C)NC(=O)[C@H](CCCNC(=N)N)NC(=O)[C@H](CCC(N)=O)NC(=O)[C@@H](NC(=O)[C@H](C)NC(=O)[C@@H]1CSSC[C@H](NC(=O)[C@H](CCCCN)NC(=O)[C@@H](N)CCCCNC(=O)CC[C@H](NC(=O)CCCCCCCCCCCCCCCCC(=O)O)C(=O)O)C(=O)N[C@@H](CC(N)=O)C(=O)N[C@@H]([C@@H](C)O)C(=O)N[C@@H](C)C(=O)N[C@@H]([C@@H](C)O)C(=O)N1)[C@@H](C)O)C(C)C)C(=O)N[C@@H](CC(C)C)C(=O)N1CCC[C@H]1C(=O)N1CCC[C@H]1C(=O)N[C@H](C(=O)N[C@@H](CC(N)=O)C(=O)N[C@H](C(=O)NCC(=O)N[C@@H](CO)C(=O)N[C@@H](CC(N)=O)C(=O)N[C@H](C(=O)N[C@@H](Cc1ccc(O)cc1)C(N)=O)[C@@H](C)O)C(C)C)[C@@H](C)O) [Peptide 33 (SEQ ID NO: 33)]	15.8	598	26
K([γGlu-C18 diacid])KCNTATCATQRLANFLVHSS[Dab]NFG[Aib]ILPPTNVGSNTY-NH2 (disulfide 3-8; N-terminus assumed; SMILES CC[C@H](C)[C@H](NC(=O)C(C)(C)NC(=O)CNC(=O)[C@H](Cc1ccccc1)NC(=O)[C@H](CC(N)=O)NC(=O)[C@H](CCN)NC(=O)[C@H](CO)NC(=O)[C@H](CO)NC(=O)[C@H](Cc1c[nH]cn1)NC(=O)[C@@H](NC(=O)[C@H](CC(C)C)NC(=O)[C@H](Cc1ccccc1)NC(=O)[C@H](CC(N)=O)NC(=O)[C@H](C)NC(=O)[C@H](CC(C)C)NC(=O)[C@H](CCCNC(=N)N)NC(=O)[C@H](CCC(N)=O)NC(=O)[C@@H](NC(=O)[C@H](C)NC(=O)[C@@H]1CSSC[C@H](NC(=O)[C@H](CCCCN)NC(=O)[C@@H](N)CCCCNC(=O)CC[C@H](NC(=O)CCCCCCCCCCCCCCCCC(=O)O)C(=O)O)C(=O)N[C@@H](CC(N)=O)C(=O)N[C@@H]([C@@H](C)O)C(=O)N[C@@H](C)C(=O)N[C@@H]([C@@H](C)O)C(=O)N1)[C@@H](C)O)C(C)C)C(=O)N[C@@H](CC(C)C)C(=O)N1CCC[C@H]1C(=O)N1CCC[C@H]1C(=O)N[C@H](C(=O)N[C@@H](CC(N)=O)C(=O)N[C@H](C(=O)NCC(=O)N[C@@H](CO)C(=O)N[C@@H](CC(N)=O)C(=O)N[C@H](C(=O)N[C@@H](Cc1ccc(O)cc1)C(N)=O)[C@@H](C)O)C(C)C)[C@@H](C)O) [Peptide 31 (SEQ ID NO: 31)]	1.28	349	4
K([γGlu-C18 diacid])KCNTATCATQRLA[Dab]FLVHSSNN[αMeF]GPILPPTEVGSNTY-NH2 (disulfide 3-8; N-terminus assumed; SMILES CC[C@H](C)[C@H](NC(=O)[C@@H]1CCCN1C(=O)CNC(=O)[C@](C)(Cc1ccccc1)NC(=O)[C@H](CC(N)=O)NC(=O)[C@H](CC(N)=O)NC(=O)[C@H](CO)NC(=O)[C@H](CO)NC(=O)[C@H](Cc1c[nH]cn1)NC(=O)[C@@H](NC(=O)[C@H](CC(C)C)NC(=O)[C@H](Cc1ccccc1)NC(=O)[C@H](CCN)NC(=O)[C@H](C)NC(=O)[C@H](CC(C)C)NC(=O)[C@H](CCCNC(=N)N)NC(=O)[C@H](CCC(N)=O)NC(=O)[C@@H](NC(=O)[C@H](C)NC(=O)[C@@H]1CSSC[C@H](NC(=O)[C@H](CCCCN)NC(=O)[C@@H](N)CCCCNC(=O)CC[C@H](NC(=O)CCCCCCCCCCCCCCCCC(=O)O)C(=O)O)C(=O)N[C@@H](CC(N)=O)C(=O)N[C@@H]([C@@H](C)O)C(=O)N[C@@H](C)C(=O)N[C@@H]([C@@H](C)O)C(=O)N1)[C@@H](C)O)C(C)C)C(=O)N[C@@H](CC(C)C)C(=O)N1CCC[C@H]1C(=O)N1CCC[C@H]1C(=O)N[C@H](C(=O)N[C@@H](CCC(=O)O)C(=O)N[C@H](C(=O)NCC(=O)N[C@@H](CO)C(=O)N[C@@H](CC(N)=O)C(=O)N[C@H](C(=O)N[C@@H](Cc1ccc(O)cc1)C(N)=O)[C@@H](C)O)C(C)C)[C@@H](C)O) [Peptide 32 (SEQ ID NO: 32)]	11.1	742	15
K([γGlu-C18 diacid])KCNTATCATQRLA[Dab]FLVHSSNNFGPILPPTEVGSNTY-NH2 (disulfide 3-8; N-terminus assumed; SMILES CC[C@H](C)[C@H](NC(=O)[C@@H]1CCCN1C(=O)CNC(=O)[C@H](Cc1ccccc1)NC(=O)[C@H](CC(N)=O)NC(=O)[C@H](CC(N)=O)NC(=O)[C@H](CO)NC(=O)[C@H](CO)NC(=O)[C@H](Cc1c[nH]cn1)NC(=O)[C@@H](NC(=O)[C@H](CC(C)C)NC(=O)[C@H](Cc1ccccc1)NC(=O)[C@H](CCN)NC(=O)[C@H](C)NC(=O)[C@H](CC(C)C)NC(=O)[C@H](CCCNC(=N)N)NC(=O)[C@H](CCC(N)=O)NC(=O)[C@@H](NC(=O)[C@H](C)NC(=O)[C@@H]1CSSC[C@H](NC(=O)[C@H](CCCCN)NC(=O)[C@@H](N)CCCCNC(=O)CC[C@H](NC(=O)CCCCCCCCCCCCCCCCC(=O)O)C(=O)O)C(=O)N[C@@H](CC(N)=O)C(=O)N[C@@H]([C@@H](C)O)C(=O)N[C@@H](C)C(=O)N[C@@H]([C@@H](C)O)C(=O)N1)[C@@H](C)O)C(C)C)C(=O)N[C@@H](CC(C)C)C(=O)N1CCC[C@H]1C(=O)N1CCC[C@H]1C(=O)N[C@H](C(=O)N[C@@H](CCC(=O)O)C(=O)N[C@H](C(=O)NCC(=O)N[C@@H](CO)C(=O)N[C@@H](CC(N)=O)C(=O)N[C@H](C(=O)N[C@@H](Cc1ccc(O)cc1)C(N)=O)[C@@H](C)O)C(C)C)[C@@H](C)O) [Peptide 34 (SEQ ID NO: 34)]	17.7	877	20
